Here are results for 2 molecules from patent publication US20210077576A1.

Assay [1] concerns the target rat integrins on Rat2 cells (rat fibroblasts). Description: flow cytometry on Rat2 (rat fibroblast) cells, detection with an antibody against the Fc domain; cell of the drawn KD table, column Rat2 [KD table]. A general note: A flow cytometer gives signals particle by particle.
The target of assay [2] is monkey integrins on CV-1 and RF/6A cells. Briefly: flow cytometry on RF/6A (monkey) cells, bound protein detected with an antibody against the Fc domain; cell of the drawn KD table, column RF/6A [KD table].
In assay [3] the target is rabbit integrins on SIRC cells (rabbit corneal cells). Briefly: flow cytometry on SIRC (rabbit cornea) cells, detection with an antibody against the Fc domain; cell of the drawn KD table, column SIRC [KD table].
Assay [4] addresses monkey integrins on CV-1 and RF/6A cells. Briefly: flow cytometry on CV-1 (monkey) cells, bound protein detected with an antibody against the Fc domain; cell of the drawn KD table, column CV-1 [KD table].
Assay [5] has the same target. Description: flow cytometry on CV-1 (monkey) cells, detection with an antibody against the Fc domain [panel CV-1 (monkey].
Assay [6] addresses human integrins on U87MG cells (human tumor cells). Briefly: flow cytometry on U87MG (human) cells, bound protein detected with an antibody against the Fc domain; cell of the drawn KD table, column U87MG [KD table].

The term Kd denotes the equilibrium constant for the complex coming apart. In general, EC50 (read off the curve) refers to the concentration giving half of the maximal effect. Turning to “NOD201 (2.5F peptide fused to human IgG1 Fc; no linker) (Fc fusion)”, the Kd in assay [1] was found to be 1.01 nM; in assay [2] it was 0.5 nM; in assay [3], 0.288 nM; in assay [4] it was 1.5 nM. The molecule further had an EC50 (read off the curve) in assay [5] of 2 nM.

B1: NOD201M (NOD201 with murine Fc domain; no linker) (Fc fusion)
chain: GCPRPRGDNPPLTCSQDSDCLAGCVCGPNGFCGEPRVPITQNPCPPLKECPPCAAPDLLGGPSVFIFPPKIKDVLMISLSPMVTCVVVDVSEDDPDVQISWFVNNVEVHTAQTQTHREDYNSTLRVVSALPIQHQDWMSGKEFKCKVNNRALPSPIEKTISKPRGPVRAPQVYVLPPPAEEMTKKEFSLTCMITGFLPAEIAVDWTSNGRTEQNYKNTATVLDSDGSYFMYSKLRVQKSTWERGSLFACSVVHEGLHNHLTTKTISRSLG
Consider B1, for which the Kd in assay [6] is 0.7 nM.
